# In article PMC10724205:
# Tests used:
# [1] = biological target: LacI-CFP-FOXO1 fusion protein with the C793S mutant FOXO1 domain; test: LacO array recruitment assay; U2OS cells with 50,000 Lac operon repeats on chromosome 1, transfected with CFP-LacI-FOXO1 fusion baits; endogenous p300 detected at the CFP dot by immunofluorescence after 48 h; dots counted for presence or absence of p300
# [2] = biological target: LacI-CFP-FOXO1 fusion protein with the small C-terminal AD deleted; test: as above
# TAF9 = TAF9 (UniProt Q16594); test: BioID (proximity biotinylation, streptavidin isolation, mass spectrometry); conditions: HEK293T cells, transient transfection, biotin, 24 h; n = 3; read off a plot
# YY1 = test: as above; conditions: HEK293T cells, transient transfection, biotin, 24 h; n = 3; read off a plot
# CLP1 = test: as above; conditions: HEK293T cells, transient transfection, biotin, 24 h; n = 3; read off a plot
# DNTTIP2 = test: as above; conditions: HEK293T cells, transient transfection, biotin, 24 h; n = 3; read off a plot
# TCF4 = test: as above; conditions: HEK293T cells, transient transfection, biotin, 24 h; n = 3; read off a plot
# p300 = p300 (UniProt Q09472); test: as above; conditions: HEK293T cells, transient transfection, biotin, 24 h; n = 3; read off a plot
# MED6 = MED6 (UniProt O75586); test: as above; conditions: HEK293T cells, transient transfection, biotin, 24 h; n = 3; read off a plot
# Chain of UniProt O75586 (O75586 whole entry): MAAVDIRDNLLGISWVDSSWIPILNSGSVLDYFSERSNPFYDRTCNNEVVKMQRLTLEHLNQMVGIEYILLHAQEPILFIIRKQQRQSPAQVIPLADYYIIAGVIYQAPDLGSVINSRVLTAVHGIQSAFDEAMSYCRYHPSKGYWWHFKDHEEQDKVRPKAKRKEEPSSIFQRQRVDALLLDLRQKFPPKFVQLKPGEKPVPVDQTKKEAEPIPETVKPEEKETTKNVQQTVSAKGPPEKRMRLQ
# Chain of UniProt Q09472 (Q09472 whole entry): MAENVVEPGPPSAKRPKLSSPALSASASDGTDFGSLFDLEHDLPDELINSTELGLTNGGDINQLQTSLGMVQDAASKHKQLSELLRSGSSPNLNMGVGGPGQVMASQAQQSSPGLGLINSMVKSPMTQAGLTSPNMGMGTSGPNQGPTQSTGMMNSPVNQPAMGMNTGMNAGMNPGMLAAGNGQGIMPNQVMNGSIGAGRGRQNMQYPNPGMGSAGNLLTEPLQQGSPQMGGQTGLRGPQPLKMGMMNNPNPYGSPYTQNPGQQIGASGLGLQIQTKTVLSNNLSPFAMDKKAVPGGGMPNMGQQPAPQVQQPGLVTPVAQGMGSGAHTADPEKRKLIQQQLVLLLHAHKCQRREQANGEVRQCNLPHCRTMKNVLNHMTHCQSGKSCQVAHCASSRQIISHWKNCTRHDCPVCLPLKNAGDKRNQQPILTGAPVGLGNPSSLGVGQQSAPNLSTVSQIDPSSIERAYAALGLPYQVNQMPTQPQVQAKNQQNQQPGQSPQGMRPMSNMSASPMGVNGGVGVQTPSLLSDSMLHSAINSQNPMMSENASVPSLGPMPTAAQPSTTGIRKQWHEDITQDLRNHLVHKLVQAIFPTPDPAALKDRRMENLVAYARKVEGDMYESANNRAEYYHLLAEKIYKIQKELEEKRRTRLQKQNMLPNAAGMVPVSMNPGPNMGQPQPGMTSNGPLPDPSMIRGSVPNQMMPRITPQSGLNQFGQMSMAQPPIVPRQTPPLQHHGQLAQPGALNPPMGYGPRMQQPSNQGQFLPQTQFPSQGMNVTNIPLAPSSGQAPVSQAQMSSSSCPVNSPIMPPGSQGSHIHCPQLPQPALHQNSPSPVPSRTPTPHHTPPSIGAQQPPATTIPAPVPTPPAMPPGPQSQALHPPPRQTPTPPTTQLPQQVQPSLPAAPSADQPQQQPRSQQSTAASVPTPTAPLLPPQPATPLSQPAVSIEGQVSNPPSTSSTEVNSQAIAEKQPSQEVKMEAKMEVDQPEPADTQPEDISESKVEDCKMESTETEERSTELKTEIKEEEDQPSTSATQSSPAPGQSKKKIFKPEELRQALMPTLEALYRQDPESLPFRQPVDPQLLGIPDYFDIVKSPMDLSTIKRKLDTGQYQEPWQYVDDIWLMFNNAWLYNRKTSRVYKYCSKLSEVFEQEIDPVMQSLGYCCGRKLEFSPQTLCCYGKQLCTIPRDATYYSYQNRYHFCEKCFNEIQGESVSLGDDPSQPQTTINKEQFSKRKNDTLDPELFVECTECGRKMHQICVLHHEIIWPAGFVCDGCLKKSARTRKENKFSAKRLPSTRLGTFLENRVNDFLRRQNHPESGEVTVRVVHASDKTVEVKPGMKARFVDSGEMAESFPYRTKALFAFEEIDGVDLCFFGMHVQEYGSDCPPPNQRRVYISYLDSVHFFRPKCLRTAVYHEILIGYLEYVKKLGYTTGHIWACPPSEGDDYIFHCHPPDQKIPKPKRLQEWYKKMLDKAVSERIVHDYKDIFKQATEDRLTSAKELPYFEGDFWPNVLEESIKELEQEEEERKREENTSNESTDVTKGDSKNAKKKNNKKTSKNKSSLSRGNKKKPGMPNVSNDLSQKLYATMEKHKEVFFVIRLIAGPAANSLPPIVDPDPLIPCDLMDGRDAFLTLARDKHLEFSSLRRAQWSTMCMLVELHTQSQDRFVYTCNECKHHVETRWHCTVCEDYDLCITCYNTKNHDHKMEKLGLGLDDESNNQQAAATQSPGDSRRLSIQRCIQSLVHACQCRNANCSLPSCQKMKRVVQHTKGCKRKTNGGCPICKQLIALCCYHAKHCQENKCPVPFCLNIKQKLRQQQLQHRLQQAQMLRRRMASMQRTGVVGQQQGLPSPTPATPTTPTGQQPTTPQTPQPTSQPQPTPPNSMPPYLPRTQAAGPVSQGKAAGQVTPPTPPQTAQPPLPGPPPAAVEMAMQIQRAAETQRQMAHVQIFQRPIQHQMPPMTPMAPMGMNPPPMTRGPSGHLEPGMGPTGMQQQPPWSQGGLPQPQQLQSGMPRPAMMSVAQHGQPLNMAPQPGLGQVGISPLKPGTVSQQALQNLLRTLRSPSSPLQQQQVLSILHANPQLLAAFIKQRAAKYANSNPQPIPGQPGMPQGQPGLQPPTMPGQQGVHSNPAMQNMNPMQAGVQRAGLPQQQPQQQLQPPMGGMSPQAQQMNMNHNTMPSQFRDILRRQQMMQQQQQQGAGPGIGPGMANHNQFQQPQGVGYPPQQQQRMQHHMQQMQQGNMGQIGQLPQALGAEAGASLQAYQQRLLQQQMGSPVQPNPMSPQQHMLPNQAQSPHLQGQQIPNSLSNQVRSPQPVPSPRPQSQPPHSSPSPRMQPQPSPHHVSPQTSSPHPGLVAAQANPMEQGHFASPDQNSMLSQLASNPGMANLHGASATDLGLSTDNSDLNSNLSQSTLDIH
# Chain of UniProt Q16594 (Q16594 whole entry): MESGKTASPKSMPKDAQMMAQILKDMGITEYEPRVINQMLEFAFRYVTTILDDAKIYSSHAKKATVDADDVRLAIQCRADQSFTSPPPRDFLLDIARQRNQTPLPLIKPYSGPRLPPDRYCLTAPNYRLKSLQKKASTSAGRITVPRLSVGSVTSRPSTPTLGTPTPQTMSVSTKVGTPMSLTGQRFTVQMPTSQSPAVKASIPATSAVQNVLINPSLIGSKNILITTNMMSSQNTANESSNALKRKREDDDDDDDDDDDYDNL
Substance,loss of p300 recruitment against the wt FOXO1 [1],reduction of p300 recruitment against the FOXO1 part of P3F [2],other: Log2 (fold change) of total spectral counts (TAF9),other: Log2 (fold change) of total spectral counts (YY1),other: Log2 (fold change) of total spectral counts (CLP1),other: Log2 (fold change) of total spectral counts (DNTTIP2),other: Log2 (fold change) of total spectral counts (TCF4),other: Log2 (fold change) of total spectral counts (p300),other: Log2 (fold change) of total spectral counts (MED6)
p300 (endogenous in U2OS cells) (from UniProt Q09472 1-2414) (natural protein),30 percent,90 percent,,,,,,,
BirA-Flag/PAX3-FOXO1 fusion construct (wildtype P3F) C793S,,,3.8,2.4,2.2,2.5,1.4,0.7,1.2
